Km and Vmax data for one substance are collected here from article PMC8844822, “SARM1 is a multi-functional NAD(P)ase with prominent base exchange activity, all regulated bymultiple physiologically relevant NAD metabolites” (iScience, 2022).

What is called Km is the concentration of substrate that gives half-maximal velocity. The term Vmax denotes the top rate of the reaction or transport when substrate is in excess.

The test system of this series is T1, NC(=O)c1ccc[n+]([C@@H]2O[C@H](COP(=O)([O-])OP(=O)(O)OC[C@H]3O[C@@H](n4cnc5c(N)ncnc54)[C@H](O)[C@@H]3O)[C@@H](O)[C@H]2O)c1.
T1 construct: a soluble fragment Val43-Ile300 with 6x-His tag at C terminus; 6xHis (C); purchased R&D Systems
Put plainly: NAD(P)ase activity by HPLC (kinetics, substrates, metal ions). Format: biochemical, human. The settings on record: other: hCD38, substrate as labelled, 25°C, pH 7.5.

Procedure: hSARM1 species were routinely assayed by the NAD/NADH-Glo^TM Assay (Promega) while both Aplysia cyclase and CD38 were assayed by fluorometry using ϵNAD ([Orsomando et al., 2000]). […] Other reagents used in addition to, or in place of those above are detailed in text or in figure legends, for example metal ions, free bases, dinucleotide analogues, mononucleotides, and ribosides. Assays were all carried out at 25°C except for temperature studies. Reactions were stopped by HClO4/K2CO3 and analysed by C18-HPLC as reported ([Mori et al., 2014]). Only the acid labile NADH and NADPH were treated with 1 N NaOH and neutralized using 1:1 vol of 1.73 M KH2CO3 while the highly hydrophobic metabolites vacor, VAD, VMN and VR, were analysed by a modified C18-HPLC method ([Buonvicino et al., 2018]). Reaction products were quantified from peak areas (see Figure 2A) based on coelution with standards (except for cyclic products from NAD analogues that were not available and were attributed based on UV-spectra and retention times as predicted). Rates were calculated as follows. Hydrolysis and cyclization were measured from product generation from the respective individual dinucleotide substrate used, e.g., free and cyclic ADP-ribosyl moieties from NAD (Figure 1B). A basal value for hydrolysis/cyclization was taken as sum of these latter two products. […]

Turning to human CD38 (Homo sapiens), the Km stood at 10.4 ± 2.90 µM and the Vmax was found to be 6.65 µmol/min/mg.
